The values below come from PMC6462504, “Dopamine transporter forms stable dimers in the live cell plasma membrane in a phosphatidylinositol 4,5-bisphosphate–independent manner” (The Journal of Biological Chemistry, 2019).

This data set deals with the molecule itself. Put plainly: single-molecule brightness analysis (TOCCSL); live CHO cells stably expressing mGFP–hDAT, TIRF microscopy of the plasma membrane, room temperature; mobile fraction only; also at low (~5/μm^2) and high (~40/μm^2) surface density and after cholesterol oxidase (2 units/ml, 30 min), MβCD (5 mM, 1 h) or m-3M3FBS (25 μM, 20 min): distribution unchanged.

B1: human dopamine transporter fused to monomeric GFP (mGFP–hDAT) (natural protein, UniProt Q01959 1-620, looked up)
chain: MSKSKCSVGLMSSVVAPAKEPNAVGPKEVELILVKEQNGVQLTSSTLTNPRQSPVEAQDRETWGKKIDFLLSVIGFAVDLANVWRFPYLCYKNGGGAFLVPYLLFMVIAGMPLFYMELALGQFNREGAAGVWKICPILKGVGFTVILISLYVGFFYNVIIAWALHYLFSSFTTELPWIHCNNSWNSPNCSDAHPGDSSGDSSGLNDTFGTTPAAEYFERGVLHLHQSHGIDDLGPPRWQLTACLVLVIVLLYFSLWKGVKTSGKVVWITATMPYVVLTALLLRGVTLPGAIDGIRAYLSVDFYRLCEASVWIDAATQVCFSLGVGFGVLIAFSSYNKFTNNCYRDAIVTTSINSLTSFSSGFVVFSFLGYMAQKHSVPIGDVAKDGPGLIFIIYPEAIATLPLSSAWAVVFFIMLLTLGIDSAMGGMESVITGLIDEFQLLHRHRELFTLFIVLATFLLSLFCVTNGGIYVFTLLDHFAAGTSILFGVLIEAIGVAWFYGVGQFSDDIQQMTGQRPSLYWRLCWKLVSPCFLLFVVVVSIVTFRPPHYGAYIFPDWANALGWVIATSSMAMVPIYAAYKFCSLPGSFREKLAYAIAPEKDRELVDRGEVRQFTLRHWLKV
notes: human dopamine transporter (hDAT); XhoI/HindIII fragment of hDAT cDNA ligated into mGFP-C1, then cloned into pIB2; mGFP is fused to the cytosolic N terminus of hDAT; also called mEGFP–hDAT; mGFP–DAT; source: CHO cells stably expressing mGFP–hDAT (viral transduction, blasticidine selection), in the live cell plasma membrane; not shown: mGFP (eGFP with A206K), N-terminal, kept
Regarding B1, the “stoichiometry N” value stood at 2.

Usually stoichiometry N stands for the number of molecules, sites or subunits per partner or assembly.
